Target: human plasmin (UniProt P00747)
Sequence (P00747 97-810): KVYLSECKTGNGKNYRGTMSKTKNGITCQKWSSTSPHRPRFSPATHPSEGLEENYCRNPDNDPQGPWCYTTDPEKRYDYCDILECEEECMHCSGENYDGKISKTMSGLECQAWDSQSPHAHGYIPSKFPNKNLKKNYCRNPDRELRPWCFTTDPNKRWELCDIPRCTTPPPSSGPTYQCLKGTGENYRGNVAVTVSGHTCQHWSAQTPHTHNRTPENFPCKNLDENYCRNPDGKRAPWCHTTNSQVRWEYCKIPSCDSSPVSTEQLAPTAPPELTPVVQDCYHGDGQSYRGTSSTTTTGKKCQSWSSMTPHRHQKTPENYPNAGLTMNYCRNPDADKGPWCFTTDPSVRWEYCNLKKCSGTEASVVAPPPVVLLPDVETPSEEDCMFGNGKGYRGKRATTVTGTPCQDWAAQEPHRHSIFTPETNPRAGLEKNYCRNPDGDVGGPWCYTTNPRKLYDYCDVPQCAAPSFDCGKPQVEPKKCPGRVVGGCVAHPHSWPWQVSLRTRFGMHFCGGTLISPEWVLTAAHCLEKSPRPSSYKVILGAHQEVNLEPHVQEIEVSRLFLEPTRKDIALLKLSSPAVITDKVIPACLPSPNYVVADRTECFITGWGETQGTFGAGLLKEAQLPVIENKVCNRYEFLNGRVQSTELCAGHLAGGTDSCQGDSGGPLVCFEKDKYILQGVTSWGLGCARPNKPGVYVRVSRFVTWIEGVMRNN

Substance	lag in plasminogen activation activity with added plasmin
clot specific streptokinase (CSSK), FBD(4,5)-SK-FBD(4,5), expressed in Pichia pastoris (pPIC9K-alpha modified CSSK/GS115), glycosylated	there was a progressive decrease in the lag in activity in the presence of increasing amounts of plasmin added to the reaction
clot specific streptokinase (CSSK), FBD(4,5)-SK-FBD(4,5), expressed in E. coli	there was a progressive decrease in the lag in activity in the presence of increasing amounts of plasmin added to the reaction

Source: patent US20180362596
